What follows are molecules tested against T1, KRAS-G12V antigen (RAS G12V-T15 peptide) (Homo sapiens, UniProt P01116, G12V) (assay: TCR mutant screening in Jurkat-NFAT-Luc cells with antigen-loaded B13 LCL cells (ONE Glo Luciferase)). Conditions: MHC-II binding region mutants; ratio to wild-type B13.14.1 TCR; 16-24 hours.
T1 construct: endogenous in cells; host or cells: patient B13 autologous LCL cells (endogenous HLA-DP); the peptide is synthetic
Format: cell-based
Method: According to the table below, point mutations were performed on the Vα and Vβ of B13.14.1 TCR (including CDR3 region and […]), and a lentiviral vector shuttle plasmid encoding the TCR mutant was constructed, packaged with the standard lentiviral vector in 293T cells, and B13.14.1TCR mutant were subjected to function screening.
The TCR mutant (CDR3 region) lentiviral vector was transduced into Jurkat-NFAT-Luc cell line, and B13 LCL cells loaded with KRAS-G12V antigen (RAS G12V-T15 peptide, SEQ ID NO: 5) were used as antigen-presenting cells. 2×10^4 TCR-T and 2×10^4 antigen-loaded B13 LCL cells were co-cultured for 16-24 hours, and added with ONE Glo Luciferase to detect the expression of fluorescent signal, and the TCR Mut RLU/WT RLU (ratio of RLU signal value of TCR mutant to RLU signal value of wild-type B13.14.1 TCR) was calculated.
The TCR mutant (MHC-II binding region) lentiviral vector was transduced into the Jurkat-NFAT-Luc cell line, and B13 LCL cells loaded with KRAS-G12V antigen (RAS G12V-T15 peptide, SEQ ID NO: 5) were used as the antigen-presenting cells. 2×10^4 TCR-T and 2×10^4 antigen-loaded B13 LCL cells were co-cultured for 16-24 hours, the fluorescence signal expression was detected by adding ONE Glo Luciferase, and TCR Mut RLU/WT RLU (ratio of RLU signal value of TCR mutant to RLU signal value of wild-type B13.14.1TCR) was calculated.

Row | Molecule | TCR Mut RLU/WT RLU [%]
1 | α32Y-S: B13.14.1 TCR Vα point mutant (protein) TCR alpha: AQSVAQPEDQVNVAEGNPLTVKCTYSVSGNPSLFWYVQYPNRGLQFLLKYITGDNLVKGSYGFEAEFNKSQTSFHLKKPSALVSDSALYFCAVRDGRGGGNKLTFGTGTQLKVEL TCR beta: GITQSPKYLFRKEGQNVTLSCEQNLNHDAMYWYRQDPGQGLRLIYYSQIVNDFQKGDIAEGYSVSREKKESFPLTVTSAQKNPTAFYLCASSPGQRDNSPLHFGNGTRLTVT | 5.77
2 | α51I-D: B13.14.1 TCR Vα point mutant (protein) TCR alpha: AQSVAQPEDQVNVAEGNPLTVKCTYSVSGNPYLFWYVQYPNRGLQFLLKYDTGDNLVKGSYGFEAEFNKSQTSFHLKKPSALVSDSALYFCAVRDGRGGGNKLTFGTGTQLKVEL TCR beta: GITQSPKYLFRKEGQNVTLSCEQNLNHDAMYWYRQDPGQGLRLIYYSQIVNDFQKGDIAEGYSVSREKKESFPLTVTSAQKNPTAFYLCASSPGQRDNSPLHFGNGTRLTVT | 93.65
3 | α51I-H: B13.14.1 TCR Vα point mutant (protein) TCR alpha: AQSVAQPEDQVNVAEGNPLTVKCTYSVSGNPYLFWYVQYPNRGLQFLLKYHTGDNLVKGSYGFEAEFNKSQTSFHLKKPSALVSDSALYFCAVRDGRGGGNKLTFGTGTQLKVEL TCR beta: GITQSPKYLFRKEGQNVTLSCEQNLNHDAMYWYRQDPGQGLRLIYYSQIVNDFQKGDIAEGYSVSREKKESFPLTVTSAQKNPTAFYLCASSPGQRDNSPLHFGNGTRLTVT | 85.85
4 | α51I-N: B13.14.1 TCR Vα point mutant (protein) TCR alpha: AQSVAQPEDQVNVAEGNPLTVKCTYSVSGNPYLFWYVQYPNRGLQFLLKYNTGDNLVKGSYGFEAEFNKSQTSFHLKKPSALVSDSALYFCAVRDGRGGGNKLTFGTGTQLKVEL TCR beta: GITQSPKYLFRKEGQNVTLSCEQNLNHDAMYWYRQDPGQGLRLIYYSQIVNDFQKGDIAEGYSVSREKKESFPLTVTSAQKNPTAFYLCASSPGQRDNSPLHFGNGTRLTVT | 84.17
5 | α51I-P: B13.14.1 TCR Vα point mutant (protein) TCR alpha: AQSVAQPEDQVNVAEGNPLTVKCTYSVSGNPYLFWYVQYPNRGLQFLLKYPTGDNLVKGSYGFEAEFNKSQTSFHLKKPSALVSDSALYFCAVRDGRGGGNKLTFGTGTQLKVEL TCR beta: GITQSPKYLFRKEGQNVTLSCEQNLNHDAMYWYRQDPGQGLRLIYYSQIVNDFQKGDIAEGYSVSREKKESFPLTVTSAQKNPTAFYLCASSPGQRDNSPLHFGNGTRLTVT | 82.47
6 | α32Y-V: B13.14.1 TCR Vα point mutant (protein) TCR alpha: AQSVAQPEDQVNVAEGNPLTVKCTYSVSGNPVLFWYVQYPNRGLQFLLKYITGDNLVKGSYGFEAEFNKSQTSFHLKKPSALVSDSALYFCAVRDGRGGGNKLTFGTGTQLKVEL TCR beta: GITQSPKYLFRKEGQNVTLSCEQNLNHDAMYWYRQDPGQGLRLIYYSQIVNDFQKGDIAEGYSVSREKKESFPLTVTSAQKNPTAFYLCASSPGQRDNSPLHFGNGTRLTVT | 4.71
7 | α51I-A: B13.14.1 TCR Vα point mutant (protein) TCR alpha: AQSVAQPEDQVNVAEGNPLTVKCTYSVSGNPYLFWYVQYPNRGLQFLLKYATGDNLVKGSYGFEAEFNKSQTSFHLKKPSALVSDSALYFCAVRDGRGGGNKLTFGTGTQLKVEL TCR beta: GITQSPKYLFRKEGQNVTLSCEQNLNHDAMYWYRQDPGQGLRLIYYSQIVNDFQKGDIAEGYSVSREKKESFPLTVTSAQKNPTAFYLCASSPGQRDNSPLHFGNGTRLTVT | 56.93
8 | α51I-M: B13.14.1 TCR Vα point mutant (protein) TCR alpha: AQSVAQPEDQVNVAEGNPLTVKCTYSVSGNPYLFWYVQYPNRGLQFLLKYMTGDNLVKGSYGFEAEFNKSQTSFHLKKPSALVSDSALYFCAVRDGRGGGNKLTFGTGTQLKVEL TCR beta: GITQSPKYLFRKEGQNVTLSCEQNLNHDAMYWYRQDPGQGLRLIYYSQIVNDFQKGDIAEGYSVSREKKESFPLTVTSAQKNPTAFYLCASSPGQRDNSPLHFGNGTRLTVT | 68.25
9 | α32Y-W: B13.14.1 TCR Vα point mutant (protein) TCR alpha: AQSVAQPEDQVNVAEGNPLTVKCTYSVSGNPWLFWYVQYPNRGLQFLLKYITGDNLVKGSYGFEAEFNKSQTSFHLKKPSALVSDSALYFCAVRDGRGGGNKLTFGTGTQLKVEL TCR beta: GITQSPKYLFRKEGQNVTLSCEQNLNHDAMYWYRQDPGQGLRLIYYSQIVNDFQKGDIAEGYSVSREKKESFPLTVTSAQKNPTAFYLCASSPGQRDNSPLHFGNGTRLTVT | 3.81
10 | α32Y-T: B13.14.1 TCR Vα point mutant (protein) TCR alpha: AQSVAQPEDQVNVAEGNPLTVKCTYSVSGNPTLFWYVQYPNRGLQFLLKYITGDNLVKGSYGFEAEFNKSQTSFHLKKPSALVSDSALYFCAVRDGRGGGNKLTFGTGTQLKVEL TCR beta: GITQSPKYLFRKEGQNVTLSCEQNLNHDAMYWYRQDPGQGLRLIYYSQIVNDFQKGDIAEGYSVSREKKESFPLTVTSAQKNPTAFYLCASSPGQRDNSPLHFGNGTRLTVT | 3.77
11 | α51I-G: B13.14.1 TCR Vα point mutant (protein) TCR alpha: AQSVAQPEDQVNVAEGNPLTVKCTYSVSGNPYLFWYVQYPNRGLQFLLKYGTGDNLVKGSYGFEAEFNKSQTSFHLKKPSALVSDSALYFCAVRDGRGGGNKLTFGTGTQLKVEL TCR beta: GITQSPKYLFRKEGQNVTLSCEQNLNHDAMYWYRQDPGQGLRLIYYSQIVNDFQKGDIAEGYSVSREKKESFPLTVTSAQKNPTAFYLCASSPGQRDNSPLHFGNGTRLTVT | 90.09

Other lines, results leading:

Row | TCR Mut RLU/WT RLU [%] | Molecule
12 | 87.31 | α51I-R: B13.14.1 TCR Vα point mutant (protein) TCR alpha: AQSVAQPEDQVNVAEGNPLTVKCTYSVSGNPYLFWYVQYPNRGLQFLLKYRTGDNLVKGSYGFEAEFNKSQTSFHLKKPSALVSDSALYFCAVRDGRGGGNKLTFGTGTQLKVEL TCR beta: GITQSPKYLFRKEGQNVTLSCEQNLNHDAMYWYRQDPGQGLRLIYYSQIVNDFQKGDIAEGYSVSREKKESFPLTVTSAQKNPTAFYLCASSPGQRDNSPLHFGNGTRLTVT
13 | 78.65 | α51I-S: B13.14.1 TCR Vα point mutant (protein) TCR alpha: AQSVAQPEDQVNVAEGNPLTVKCTYSVSGNPYLFWYVQYPNRGLQFLLKYSTGDNLVKGSYGFEAEFNKSQTSFHLKKPSALVSDSALYFCAVRDGRGGGNKLTFGTGTQLKVEL TCR beta: GITQSPKYLFRKEGQNVTLSCEQNLNHDAMYWYRQDPGQGLRLIYYSQIVNDFQKGDIAEGYSVSREKKESFPLTVTSAQKNPTAFYLCASSPGQRDNSPLHFGNGTRLTVT
14 | 71.70 | α51I-Q: B13.14.1 TCR Vα point mutant (protein) TCR alpha: AQSVAQPEDQVNVAEGNPLTVKCTYSVSGNPYLFWYVQYPNRGLQFLLKYQTGDNLVKGSYGFEAEFNKSQTSFHLKKPSALVSDSALYFCAVRDGRGGGNKLTFGTGTQLKVEL TCR beta: GITQSPKYLFRKEGQNVTLSCEQNLNHDAMYWYRQDPGQGLRLIYYSQIVNDFQKGDIAEGYSVSREKKESFPLTVTSAQKNPTAFYLCASSPGQRDNSPLHFGNGTRLTVT
15 | 110.29 | β48Y-A: B13.14.1 TCR Vβ point mutant (protein) TCR alpha: AQSVAQPEDQVNVAEGNPLTVKCTYSVSGNPYLFWYVQYPNRGLQFLLKYITGDNLVKGSYGFEAEFNKSQTSFHLKKPSALVSDSALYFCAVRDGRGGGNKLTFGTGTQLKVEL TCR beta: GITQSPKYLFRKEGQNVTLSCEQNLNHDAMYWYRQDPGQGLRLIYASQIVNDFQKGDIAEGYSVSREKKESFPLTVTSAQKNPTAFYLCASSPGQRDNSPLHFGNGTRLTVT
16 | 15.07 | β48Y-D: B13.14.1 TCR Vβ point mutant (protein) TCR alpha: AQSVAQPEDQVNVAEGNPLTVKCTYSVSGNPYLFWYVQYPNRGLQFLLKYITGDNLVKGSYGFEAEFNKSQTSFHLKKPSALVSDSALYFCAVRDGRGGGNKLTFGTGTQLKVEL TCR beta: GITQSPKYLFRKEGQNVTLSCEQNLNHDAMYWYRQDPGQGLRLIYDSQIVNDFQKGDIAEGYSVSREKKESFPLTVTSAQKNPTAFYLCASSPGQRDNSPLHFGNGTRLTVT
17 | 68.06 | α51I-T: B13.14.1 TCR Vα point mutant (protein) TCR alpha: AQSVAQPEDQVNVAEGNPLTVKCTYSVSGNPYLFWYVQYPNRGLQFLLKYTTGDNLVKGSYGFEAEFNKSQTSFHLKKPSALVSDSALYFCAVRDGRGGGNKLTFGTGTQLKVEL TCR beta: GITQSPKYLFRKEGQNVTLSCEQNLNHDAMYWYRQDPGQGLRLIYYSQIVNDFQKGDIAEGYSVSREKKESFPLTVTSAQKNPTAFYLCASSPGQRDNSPLHFGNGTRLTVT

Reference: patent US20240000834A1, “RAS MUTANT EPITOPE PEPTIDE AND T CELL RECEPTOR RECOGNIZING RAS MUTANT” (SHANGHAI GENBASE BIOTECHNOLOGY CO., LTD., priority 2020, published 2024)
